Source: publication PMC7948472 (2020)

B1: C9 Fab (Fab, V domains shown)
VH: QSVEESGGRLVTPGTPLTLTCTVSGFSLTSYDMSWVRQAPGKGLEYIGFISSTTGGTYYASWAKGRFTISKTSTTVDLKITSPTTEDTATYFCAAGSWYNMWGPGTLVTVSS
VL: AQVLTQTPSSVSAAVGGTVTINCQASQSVYNNNWLGWYQQKPGQPPKLLIYKASTLASGVPSRFRGSGSGTQFTLTISDVQCDDAATYYCAGGYNGNIFPFGGGTEVVVT
B2: D6 Fab (Fab, V domains shown)
VH: QTVKESGGRLVTPGGTLTLTCTVSGFSLSRYAMSWVRQAPGEGLEYIGWINTYGSAYYASWVNGRFTISKTSTTMDLKMTSLTAADTATYFCVRWFADGGMDPWGPGTLVTVSS
VL: ALVLTQTPSPVSAAVGGAVSISCQSSQNIYKDNELSWYQQKPGQPPKLLIYKASTLASGVPSRFSGSGSGTQFTLTISGVQCDDAATYYCQGSRYNNGWDSGFGGGTEVVVK

Target: T1, Histone H4 methylated peptide, SGRGK(me3)GGKGLGKGGAK (trimethyl-lysine K(me3) at K5)
T1 peptide: SGRGKGGKGLGKGGAK
Test: SPR

Binder | Kd [µM]
B1 | 1600
B2 | 870
